B1: Protein ABSCISIC ACID-… 5 (Arabidopsis thaliana (Mouse-ear cress)), Q9SJN0 (parent)
chain: MVTRETKLTSEREVESSMAQARHNGGGGGENHPFTSLGRQSSIYSLTLDEFQHALCENGKNFGSMNMDEFLVSIWNAEENNNNQQQAAAAAGSHSVPANHNGFNNNNNNGGEGGVGVFSGGSRGNEDANNKRGIANESSLPRQGSLTLPAPLCRKTVDEVWSEIHRGGGSGNGGDSNGRSSSSNGQNNAQNGGETAARQPTFGEMTLEDFLVKAGVVREHPTNPKPNPNPNQNQNPSSVIPAAAQQQLYGVFQGTGDPSFPGQAMGVGDPSGYAKRTGGGGYQQAPPVQAGVCYGGGVGFGAGGQQMGMVGPLSPVSSDGLGHGQVDNIGGQYGVDMGGLRGRKRVVDGPVEKVVERRQRRMIKNRESAARSRARKQAYTVELEAELNQLKEENAQLKHALAELERKRKQQYFESLKSRAQPKLPKSNGRLRTLMRNPSCPL

Variants of: B1
Settings: with sumo1_arath SUMO1, P55852
sumo1_arath SUMO1, P55852, sequence (P55852 whole entry): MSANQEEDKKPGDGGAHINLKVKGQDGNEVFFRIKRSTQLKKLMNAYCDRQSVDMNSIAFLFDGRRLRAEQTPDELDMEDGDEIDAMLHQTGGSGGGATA

effect of a mutation on the interaction | Variant
disrupting interaction | MVTRETKLTSEREVESSMAQARHNGGGGGENHPFTSLGRQSSIYSLTLDEFQHALCENGKNFGSMNMDEFLVSIWNAEENNNNQQQAAAAAGSHSVPANHNGFNNNNNNGGEGGVGVFSGGSRGNEDANNKRGIANESSLPRQGSLTLPAPLCRKTVDEVWSEIHRGGGSGNGGDSNGRSSSSNGQNNAQNGGETAARQPTFGEMTLEDFLVKAGVVREHPTNPKPNPNPNQNQNPSSVIPAAAQQQLYGVFQGTGDPSFPGQAMGVGDPSGYAKRTGGGGYQQAPPVQAGVCYGGGVGFGAGGQQMGMVGPLSPVSSDGLGHGQVDNIGGQYGVDMGGLRGRKRVVDGPVEKVVERRQRRMIKNRESAARSRARKQAYTVELEAELNQLREENAQLKHALAELERKRKQQYFESLKSRAQPKLPKSNGRLRTLMRNPSCPL [K391R]
